The results in this text go back to article doi:10.1101/2025.07.23.666473.

For the test, the target named is NaV1.5 (mouse (endogenous in heart)) (UniProt Q9JJV9). Kind of test: co-IP.
Chain of UniProt Q9JJV9 (Q9JJV9 whole entry): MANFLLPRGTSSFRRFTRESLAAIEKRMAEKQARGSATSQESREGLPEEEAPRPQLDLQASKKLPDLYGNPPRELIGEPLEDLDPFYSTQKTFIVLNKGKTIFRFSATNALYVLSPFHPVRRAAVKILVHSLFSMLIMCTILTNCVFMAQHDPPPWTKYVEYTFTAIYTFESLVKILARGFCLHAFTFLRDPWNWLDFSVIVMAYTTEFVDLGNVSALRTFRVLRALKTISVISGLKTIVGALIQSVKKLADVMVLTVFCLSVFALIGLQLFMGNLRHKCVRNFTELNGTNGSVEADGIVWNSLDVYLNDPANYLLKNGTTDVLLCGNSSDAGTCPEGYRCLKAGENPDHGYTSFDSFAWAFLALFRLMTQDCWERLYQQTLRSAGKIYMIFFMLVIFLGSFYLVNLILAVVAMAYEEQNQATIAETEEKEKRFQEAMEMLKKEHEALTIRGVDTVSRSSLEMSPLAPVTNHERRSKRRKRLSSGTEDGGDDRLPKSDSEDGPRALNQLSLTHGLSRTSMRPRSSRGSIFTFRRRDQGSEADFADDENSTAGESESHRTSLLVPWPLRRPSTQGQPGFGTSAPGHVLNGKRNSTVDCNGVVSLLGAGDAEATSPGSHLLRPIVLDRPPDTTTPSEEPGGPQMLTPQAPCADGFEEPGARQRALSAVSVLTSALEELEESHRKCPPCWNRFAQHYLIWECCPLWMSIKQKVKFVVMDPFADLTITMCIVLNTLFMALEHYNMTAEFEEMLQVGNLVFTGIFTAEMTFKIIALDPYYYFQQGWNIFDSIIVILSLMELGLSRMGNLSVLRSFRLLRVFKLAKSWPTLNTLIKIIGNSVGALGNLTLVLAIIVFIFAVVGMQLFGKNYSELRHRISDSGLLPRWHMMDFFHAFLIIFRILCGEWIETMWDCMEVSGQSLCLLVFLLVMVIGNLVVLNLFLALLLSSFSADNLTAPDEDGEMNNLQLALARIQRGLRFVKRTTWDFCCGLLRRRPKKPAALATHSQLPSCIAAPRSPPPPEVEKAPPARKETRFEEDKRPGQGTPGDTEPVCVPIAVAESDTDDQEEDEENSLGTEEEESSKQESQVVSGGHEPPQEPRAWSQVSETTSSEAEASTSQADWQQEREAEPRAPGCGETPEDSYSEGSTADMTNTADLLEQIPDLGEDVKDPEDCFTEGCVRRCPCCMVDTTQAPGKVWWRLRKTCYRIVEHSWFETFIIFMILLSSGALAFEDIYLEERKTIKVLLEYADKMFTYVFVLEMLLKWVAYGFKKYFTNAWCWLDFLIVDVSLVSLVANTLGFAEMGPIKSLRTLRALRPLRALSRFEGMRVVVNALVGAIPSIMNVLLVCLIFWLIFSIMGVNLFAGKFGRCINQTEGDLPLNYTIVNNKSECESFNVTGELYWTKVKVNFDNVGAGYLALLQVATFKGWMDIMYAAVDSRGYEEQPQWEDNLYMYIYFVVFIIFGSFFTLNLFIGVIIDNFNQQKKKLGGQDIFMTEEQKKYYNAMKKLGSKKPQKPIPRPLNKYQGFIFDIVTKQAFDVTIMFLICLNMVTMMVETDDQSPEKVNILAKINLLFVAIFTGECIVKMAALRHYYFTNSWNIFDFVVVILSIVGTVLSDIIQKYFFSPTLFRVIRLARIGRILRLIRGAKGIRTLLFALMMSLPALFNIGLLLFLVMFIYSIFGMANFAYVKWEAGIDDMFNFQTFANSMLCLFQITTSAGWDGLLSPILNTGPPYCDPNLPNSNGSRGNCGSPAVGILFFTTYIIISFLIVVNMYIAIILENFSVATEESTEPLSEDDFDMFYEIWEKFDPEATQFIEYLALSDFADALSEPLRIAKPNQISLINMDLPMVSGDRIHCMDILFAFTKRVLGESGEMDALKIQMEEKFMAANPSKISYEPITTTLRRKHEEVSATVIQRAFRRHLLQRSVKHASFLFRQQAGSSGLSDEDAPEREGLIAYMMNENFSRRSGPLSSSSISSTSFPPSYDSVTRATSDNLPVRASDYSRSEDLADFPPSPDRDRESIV

“FGF13 (from UniProt P70377 1-245) (natural protein)” came in with a percent of total FGF13 depleted with NaV1.5 (in complex) of 35%.
